Test results as given in patent US20110263454A1, “Methods of Identifying Functional Characteristics of Promoters, Transcription Modifying Proteins and Transcription Modulating Agents” (Salk Institute for Biological Studies, priority 2008, published 2011).

How the values were obtained:
[1] = system: mNPY promoter; assay: NHR-promoter luciferase screen, mNPY promoter; assay type: cell-based, mouse; details: for Results of assays of transcription factor (+/- ligand) with mNPY: Table 6d, luciferase activity relative to control (control = 1.00); for Luc. act., normalized to lacZ / Normalized Luc. act., normalized to control: mNPY promoter, HR component with or without ligand; for Normalized Luc. act., normalized to control: relative to control
Method in brief: (§1)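 CV-1 cells were co-transfected with 50 ng NHR (homodimer or NHR/RXR heterodimer), 100 ng promoter-luciferase construct and 50 ng LacZ. Luciferase was normalized to LacZ and to a no-NHR/no-ligand control.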

[2] = system: MCP-1 promoter; assay: NHR-promoter luciferase screen, MCP-1 promoter; assay type: cell-based; details: for Normalized Luc. act., normalized to control / Luc. act., normalized to lacZ: MCP-1 promoter reporter; for Normalized Luc. act., normalized to control: HR without or with its ligand, relative to control; for Luc. act., normalized to lacZ: hormone receptor (HR) without or with its ligand; for mMCP-1 promoter reporter activity: transcription factor +/- ligand, control = 1.00
Method in brief: as §1

[3] = system: mDio2 promoter; assay: NHR-promoter luciferase screen, mDio2 promoter; assay type: cell-based, mouse; details: for Luc. act., normalized to lacZ / Normalized Luc. act., normalized to control: Dio2, HR component without or with its ligand; for mDio2 promoter reporter activity: transcription factor +/- ligand, control = 1.00
Method in brief: as §1

[4] = system: hMyoD promoter; assay: NHR-promoter luciferase screen, hMyoD promoter; assay type: cell-based, human; details: for Luc. act., normalized to lacZ / Normalized Luc. act., normalized to control: MyoD promoter reporter, co-transfected HR, without or with its ligand; for Normalized Luc. act., normalized to control: relative to control; for luciferase activity normalized to lacZ activity and to a control, hMyoD: hMyoD promoter-luciferase, CV-1 cells, NHR +/- ligand, control = 1.00
Method in brief: as §1

[5] = system: hPPARg2 promoter; assay: NHR-promoter luciferase screen, hPPARg2 promoter; assay type: cell-based, human; details: for Luc. act., normalized to lacZ / Normalized Luc. act., normalized to control: PPARG2 promoter, hormone receptor with or without its ligand; for Normalized Luc. act., normalized to control: relative to control; for Results of assays of transcription factor (+/- ligand) with hPPARg2: Table 6d, luciferase activity relative to control (control = 1.00)
Method in brief: as §1

[6] = system: mUCP2 promoter; assay: NHR-promoter luciferase screen, mUCP2 promoter; assay type: cell-based, mouse; details: for Luc. act., normalized to lacZ / Normalized Luc. act., normalized to control: mUCP2 promoter reporter, co-transfected HR, with or without its ligand; for Normalized Luc. act., normalized to control: relative to control; for luciferase activity normalized to lacZ activity and to a control, mUCP2: mUCP2 promoter-luciferase, CV-1 cells, NHR +/- ligand, control = 1.00
Method in brief: as §1

B1: HNF4g: Hepatocyte Nuclear Factor γ (NR2A2), cDNA driver (protein, UniProt Q14541 1-408, looked up)
Hepatocyte nuclear factor …: MNTTDNGVNCLCAICGDRATGKHYGASSCDGCKGFFRRSIRKSHVYSCRFSRQCVVDKDKRNQCRYCRLRKCFRAGMKKEAVQNERDRISTRRSTFDGSNIPSINTLAQAEVRSRQISVSSPGSSTDINVKKIASIGDVCESMKQQLLVLVEWAKYIPAFCELPLDDQVALLRAHAGEHLLLGATKRSMMYKDILLLGNNYVIHRNSCEVEISRVANRVLDELVRPFQEIQIDDNEYACLKAIVFFDPDAKGLSDPVKIKNMRFQVQIGLEDYINDRQYDSRGRFGELLLLLPTLQSITWQMIEQIQFVKLFGMVKIDNLLQEMLLGGASNDGSHLHHPMHPHLSQDPLTGQTILLGPMSTLVHADQISTPETPLPSPPQGSGQEQYKIAANQASVISHQHLSKQKQL
- Results of assays of transcription factor (+/- ligand) with mNPY [1]: 0.96
- Luc. act., normalized to lacZ [1]: 80.7
- Normalized Luc. act., normalized to control [1]: 1.0
- Normalized Luc. act., normalized to control [2]: 1.2
- Luc. act., normalized to lacZ [2]: 128.6
- mMCP-1 promoter reporter activity [2]: 1.20
- Luc. act., normalized to lacZ [3]: 18.0
- Normalized Luc. act., normalized to control [3]: 1.1
- mDio2 promoter reporter activity [3]: 1.14
- Luc. act., normalized to lacZ [4]: 67.2
- Normalized Luc. act., normalized to control [4]: 1.1
- luciferase activity normalized to lacZ activity and to a control, hMyoD [4]: 1.06
- Luc. act., normalized to lacZ [5]: 1.5
- Normalized Luc. act., normalized to control [5]: 0.8
- Results of assays of transcription factor (+/- ligand) with hPPARg2 [5]: 0.76
- Luc. act., normalized to lacZ [6]: 114.8
- Normalized Luc. act., normalized to control [6]: 1.0
- luciferase activity normalized to lacZ activity and to a control, mUCP2 [6]: 1.04

B2: RXRg: Retinoic X Receptor γ (NR2B3), cDNA driver (protein, UniProt P48443 1-463, looked up)
Retinoic acid receptor …: MYGNYSHFMKFPAGYGGSPGHTGSTSMSPSAALSTGKPMDSHPSYTDTPVSAPRTLSAVGTPLNALGSPYRVITSAMGPPSGALAAPPGINLVAPPSSQLNVVNSVSSSEDIKPLPGLPGIGNMNYPSTSPGSLVKHICAICGDRSSGKHYGVYSCEGCKGFFKRTIRKDLIYTCRDNKDCLIDKRQRNRCQYCRYQKCLVMGMKREAVQEERQRSRERAESEAECATSGHEDMPVERILEAELAVEPKTESYGDMNMENSTNDPVTNICHAADKQLFTLVEWAKRIPHFSDLTLEDQVILLRAGWNELLIASFSHRSVSVQDGILLATGLHVHRSSAHSAGVGSIFDRVLTELVSKMKDMQMDKSELGCLRAIVLFNPDAKGLSNPSEVETLREKVYATLEAYTKQKYPEQPGRFAKLLLRLPALRSIGLKCLEHLFFFKLIGDTPIDTFLMEMLETPLQIT
- Results of assays of transcription factor (+/- ligand) with mNPY [1]: 0.97
- Luc. act., normalized to lacZ [1]: 81.2
- Normalized Luc. act., normalized to control [1]: 1.0
- Normalized Luc. act., normalized to control [2]: 2.0
- Luc. act., normalized to lacZ [2]: 212.4
- mMCP-1 promoter reporter activity [2]: 1.98
- Luc. act., normalized to lacZ [3]: 27.8
- Normalized Luc. act., normalized to control [3]: 1.8
- mDio2 promoter reporter activity [3]: 1.77
- Luc. act., normalized to lacZ [4]: 67.6
- Normalized Luc. act., normalized to control [4]: 1.1
- luciferase activity normalized to lacZ activity and to a control, hMyoD [4]: 1.07
- Luc. act., normalized to lacZ [5]: 1.5
- Normalized Luc. act., normalized to control [5]: 0.7
- Results of assays of transcription factor (+/- ligand) with hPPARg2 [5]: 0.74
- Luc. act., normalized to lacZ [6]: 144.4
- Normalized Luc. act., normalized to control [6]: 1.3
- luciferase activity normalized to lacZ activity and to a control, mUCP2 [6]: 1.31

B3: RORb: RAR-related Orphan Receptor β (NR1F2), cDNA driver (protein, UniProt Q92753 1-470, looked up)
Nuclear receptor ROR-beta: MCENQLKTKADATAQIEVIPCKICGDKSSGIHYGVITCEGCKGFFRRSQQNNASYSCPRQRNCLIDRTNRNRCQHCRLQKCLALGMSRDAVKFGRMSKKQRDSLYAEVQKHQQRLQEQRQQQSGEAEALARVYSSSISNGLSNLNNETSGTYANGHVIDLPKSEGYYNVDSGQPSPDQSGLDMTGIKQIKQEPIYDLTSVPNLFTYSSFNNGQLAPGITMTEIDRIAQNIIKSHLETCQYTMEELHQLAWQTHTYEEIKAYQSKSREALWQQCAIQITHAIQYVVEFAKRITGFMELCQNDQILLLKSGCLEVVLVRMCRAFNPLNNTVLFEGKYGGMQMFKALGSDDLVNEAFDFAKNLCSLQLTEEEIALFSSAVLISPDRAWLIEPRKVQKLQEKIYFALQHVIQKNHLDDETLAKLIAKIPTITAVCNLHGEKLQVFKQSHPEIVNTLFPPLYKELFNPDCATGCK
- Results of assays of transcription factor (+/- ligand) with mNPY [1]: 1.12
- Luc. act., normalized to lacZ [1]: 94.2
- Normalized Luc. act., normalized to control [1]: 1.1
- Normalized Luc. act., normalized to control [2]: 1.6
- Luc. act., normalized to lacZ [2]: 176.3
- mMCP-1 promoter reporter activity [2]: 1.65
- Luc. act., normalized to lacZ [3]: 23.1
- Normalized Luc. act., normalized to control [3]: 1.5
- mDio2 promoter reporter activity [3]: 1.47
- Luc. act., normalized to lacZ [4]: 73.9
- Normalized Luc. act., normalized to control [4]: 1.2
- luciferase activity normalized to lacZ activity and to a control, hMyoD [4]: 1.17
- Luc. act., normalized to lacZ [5]: 1.8
- Normalized Luc. act., normalized to control [5]: 0.9
- Results of assays of transcription factor (+/- ligand) with hPPARg2 [5]: 0.89
- Luc. act., normalized to lacZ [6]: 176.2
- Normalized Luc. act., normalized to control [6]: 1.6
- luciferase activity normalized to lacZ activity and to a control, mUCP2 [6]: 1.60

B4: TR2: Testicular Orphan Nuclear Receptor 2 (NR2C1), cDNA driver (protein, UniProt P13056 1-603, looked up)
Nuclear receptor subfamily 2 …: MATIEEIAHQIIEQQMGEIVTEQQTGQKIQIVTALDHNTQGKQFILTNHDGSTPSKVILARQDSTPGKVFLTTPDAAGVNQLFFTTPDLSAQHLQLLTDNSPDQGPNKVFDLCVVCGDKASGRHYGAVTCEGCKGFFKRSIRKNLVYSCRGSKDCIINKHHRNRCQYCRLQRCIAFGMKQDSVQCERKPIEVSREKSSNCAASTEKIYIRKDLRSPLTATPTFVTDSESTRSTGLLDSGMFMNIHPSGVKTESAVLMTSDKAESCQGDLSTLANVVTSLANLGKTKDLSQNSNEMSMIESLSNDDTSLCEFQEMQTNGDVSRAFDTLAKALNPGESTACQSSVAGMEGSVHLITGDSSINYTEKEGPLLSDSHVAFRLTMPSPMPEYLNVHYIGESASRLLFLSMHWALSIPSFQALGQENSISLVKAYWNELFTLGLAQCWQVMNVATILATFVNCLHNSLQQDKMSTERRKLLMEHIFKLQEFCNSMVKLCIDGYEYAYLKAIVLFSPDHPSLENMEQIEKFQEKAYVEFQDYITKTYPDDTYRLSRLLLRLPALRLMNATITEELFFKGLIGNIRIDSVIPHILKMEPADYNSQIIGHSI
- Results of assays of transcription factor (+/- ligand) with mNPY [1]: 1.27
- Luc. act., normalized to lacZ [1]: 106.6
- Normalized Luc. act., normalized to control [1]: 1.3
- Normalized Luc. act., normalized to control [2]: 2.9
- Luc. act., normalized to lacZ [2]: 311.2
- mMCP-1 promoter reporter activity [2]: 2.91
- Luc. act., normalized to lacZ [3]: 33.8
- Normalized Luc. act., normalized to control [3]: 2.2
- mDio2 promoter reporter activity [3]: 2.15
- Luc. act., normalized to lacZ [4]: 83.1
- Normalized Luc. act., normalized to control [4]: 1.3
- luciferase activity normalized to lacZ activity and to a control, hMyoD [4]: 1.31
- Luc. act., normalized to lacZ [5]: 1.9
- Normalized Luc. act., normalized to control [5]: 1.0
- Results of assays of transcription factor (+/- ligand) with hPPARg2 [5]: 0.95
- Luc. act., normalized to lacZ [6]: 208.9
- Normalized Luc. act., normalized to control [6]: 1.9
- luciferase activity normalized to lacZ activity and to a control, mUCP2 [6]: 1.90
